The text below walks through data of publication PMC4999498.

The nature of series [1]: phospho-S243 immunoblot, anti-IgM-stimulated Ramos. Particulars: glycan lost; control: WT Lsp1. Background: In western blotting, separated proteins are transferred to a membrane and probed.
Series [2] is described as follows: phospho-S243 immunoblot, anti-IgM-stimulated splenic B cells. Particulars: glycan gained; control: no TG.

B1: lymphocyte-specific protein-1 (Lsp1, mLsp1): S209A (protein)
parent chain: MAEAAIDPRCEEQEELHAEDSEGLTTQWREEDEEEAAREQRQRERERQLQDQDKDKEDDGGHSLEQPGQQTLISLKSSELDEDEGFGDWSQKPEPRQQFWGNEGTAEGTEPSQSERPEEKQTEESSHQAKVHLEESNLSYREPDPEDAVGGSGEAEEHLIRHQVRTPSPLALEDTVELSSPPLSPTTKLADRTESLNRSIKKSNSVKKSQPTLPISTIDERLQQYTQATESSGRTPKLSRQPSIELPSMAVASTKTLWETGEVQSQSASKTPSCQDIVAGDMSKKSLWEQKGGSKISSTIKSTPSGKRYKFVATGHGKYEKVLVDEGSAP
Consider B1, for which the “other: phosphorylation at S243” value in series [1] is “decreases”.

B2: lymphocyte-specific protein-1 (Lsp1, mLsp1): thiamet-G (TG) (protein)
parent chain: MAEAAIDPRCEEQEELHAEDSEGLTTQWREEDEEEAAREQRQRERERQLQDQDKDKEDDGGHSLEQPGQQTLISLKSSELDEDEGFGDWSQKPEPRQQFWGNEGTAEGTEPSQSERPEEKQTEESSHQAKVHLEESNLSYREPDPEDAVGGSGEAEEHLIRHQVRTPSPLALEDTVELSSPPLSPTTKLADRTESLNRSIKKSNSVKKSQPTLPISTIDERLQQYTQATESSGRTPKLSRQPSIELPSMAVASTKTLWETGEVQSQSASKTPSCQDIVAGDMSKKSLWEQKGGSKISSTIKSTPSGKRYKFVATGHGKYEKVLVDEGSAP
Take B2: the “other: phosphorylation at S243” value in series [2] is “increases”.
